Experimental data as given in patent publication US11879149B2, “Quantification method of ethanolamine phosphate, oxidoreductase for quantification, composition for quantification, kit for quantification and sensor for quantification” (KIKKOMAN CORPORATION, priority 2018, dated 2024).

Legend:
[1] = Dehydrogenase activity measurement of AgPEAOX (1-MPES/WST-1, A438); assay type: biochemical; details: pH 8.5; final concentration of 50 mM EAP; 37° C.
Protocol: After incubation of 609 μl of the reagent consisting of the composition of Table 3 for 5 minutes at 37° C., 21 μl of the substrate solution (1500 mM EAP) was added and mixed, and the amount of change at A438 (ΔAS) per 1 minute at 37° C. was measured using the spectrophotometer (U-3900, manufactured by Hitachi High-Tech Science Corporation).
Next, 21 μl of ion-exchanged water was added instead of the substrate solution and mixed, and the amount of change at A438 (ΔA0) per 1 minute at 37° C. was measured. 1-methoxy-5-ethylphenazinium ethyl sulfate (1-MPES), and 2-(4-iodophenyl)-3-(4-nitrophenyl)-5-(2,4-disulfophenyl)-2H-tetrazolium monosodium salt (WST-1) manufactured by DOJINDO LABORATORIES were used.
Dehydrogenase activity was calculated based on the following formula: Dehydrogenase activity (U/ml)=(ΔAS−ΔA0)×630×df/(37.0×x)=17.0×(ΔAS−ΔA0)×df/x • 37.0: Millimolar extinction coefficient (mM^−1 cm^−1) of WST-1 formazan dye for 438 nm-Wavelength Light • df: Dilution rate of enzyme solution (Quantification of EAP by AgPEAOX)

[2] = Oxidase activity measurement and pH dependence of AgPEAOX (4-AA/TOOS/POD, A555); assay type: biochemical
Protocol: Oxidase activity was measured for the expressed, purified AgPEAOX by the methods described above. After incubating 609 μl of a reagent consisting of the composition of Table 5 at 37° C. for 5 minutes, 21 μl of a substrate solution (1500 mM EAP) was added and mixed, and the amount of change at A555 (ΔAS) per 1 minute at 37° C. was measured using the spectrophotometer (U-3900, manufactured by Hitachi High-Tech Science Corporation).
Next, 21 μl of ion-exchanged water was added instead of the substrate solution and mixed, and the amount of change at A555 (ΔA0) per 1 minute at 37° C. was measured. […]
The oxidase activity was calculated based on the following formula: Oxidase activity (U/ml)=(ΔAS−ΔA0)×630×df/(39.2×0.5×x)=32.1×(ΔAS−ΔA0)×df/x • 39.2: Millimolar extinction coefficient (mM^−1cm^−1) of 4-AA-TOOS Condensation dye for 555 nm-wavelength light • df: Dilution rate of enzyme solution (pH-Dependence Measurement of Catalytic Reaction of AgPEAOX)
When the pH dependence of catalytic reaction of AgPEAOX was measured, the activity was measured by replacing Bicine-NaOH buffer solution pH 8.5 contained in the reagent for activity measurement in Table 5 with a potassium phosphate buffer solution, MOPS-NaOH buffer solution, or Bicine-NaOH adjusted to a predetermined pH.

AgPEAOX: phenylethylamine oxidase derived from Arthrobacter globiformis, UniProt ID P46881, SEQ ID NO: 9
dehydrogenase activity of purified AgPEAOX solution [1]: 0.069 U/ml (*purified AgPEAOX solution)
oxidase activity of purified AgPEAOX solution ([2]; pH 8.5, final concentration of 50 mM EAP, 37° C.): 2.29 U/ml (*purified AgPEAOX solution)
optimum pH for the catalytic reaction (oxidase activity) ([2]; potassium phosphate, MOPS-NaOH or Bicine-NaOH buffers, FIG. 3): 8.5
